# In publication PMC5744401:
# Assays:
# Conditions in all cases: EMSA: 0.3 nM DIG-labeled probe; buffer, salt, pH and temperature as in Zhu et al. 2016 (not given)
# [1] = target: T1, His6-AvaR1 (Streptomyces avermitilis) (UniProt Q82H41); assay: EMSA
# T1 sequence: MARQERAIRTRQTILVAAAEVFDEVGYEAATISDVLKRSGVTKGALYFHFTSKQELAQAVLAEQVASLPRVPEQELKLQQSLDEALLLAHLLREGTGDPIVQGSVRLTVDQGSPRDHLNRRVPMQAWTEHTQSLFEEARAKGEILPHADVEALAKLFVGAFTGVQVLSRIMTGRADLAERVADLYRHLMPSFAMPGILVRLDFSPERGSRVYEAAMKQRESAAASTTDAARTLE
# [2] = target: T1, His6-AvaR1 (Streptomyces avermitilis); assay: competition EMSA
# [3] = target: T2, His6-AvaR2 (Streptomyces avermitilis) (UniProt Q82H44); assay: EMSA
# T2 sequence: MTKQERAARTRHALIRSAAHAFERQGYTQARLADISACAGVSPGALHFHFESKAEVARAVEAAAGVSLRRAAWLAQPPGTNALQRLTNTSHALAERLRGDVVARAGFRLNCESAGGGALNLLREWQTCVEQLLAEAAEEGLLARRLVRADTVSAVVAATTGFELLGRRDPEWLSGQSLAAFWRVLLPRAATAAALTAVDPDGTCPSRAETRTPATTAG
# [4] = target: T1, His6-AvaR1 (Streptomyces avermitilis); assay: DNase I footprinting
# [5] = target: T3, GST-AvaR2 (Streptomyces avermitilis) (UniProt Q82H44); assay: EMSA
# T3 sequence: T2 sequence
# [6] = target: T4, His6-AvaR1;GST-AvaR2 (Streptomyces avermitilis;Streptomyces avermitilis) (UniProt Q82H41+Q82H44); assay: EMSA
# T4 sequence 1: T1 sequence
# T4 sequence 2: T2 sequence
# [7] = test system: His6-AvaR1 (Streptomyces avermitilis); assay: competition EMSA
Substance,binding [1],further results
ACTGATGCGCGAGAAAACCGCACAAGCGGTTTGTTAAAGTTGCTGGACCCCCATCAGCAACGGAGCGCCCGATGGTCAAGCAGGTCAGACAGGAACGCGCGATCCGCACGCGCAACGCCTTGATCGAGTCC (double strand) [avaR3p],binds,binding signal (affinity rank of 5 (1 = strongest)) [2]: 1
ATCCACGCTTCTCGCTCCGCCCAGTGTACGGCGCCGCGCGGACAGCGGCCGACCGGTTTTCCGGGGCCCGCGCGGAAGGCGGCAGGGGGGCCGGTACGGGCCGCGGACTGACCCGAATGGCGA (double strand) [ileSp],no binding,
CCCTCGACCGGATTGTGGGAGCATCGTGCCATTCCAAGTGGCCGCTATGTGACCGAGTGCCCCCGATCGGCCCCAGATGGCGGGTTAAGGCTAATTAAGGAAACCCCCTGACGCCCCCTGACGGGGTCTGCTCACCCGCACGGCATGATGGCCCCCATGCGTGCGGTGGTGCAGAGGGTGGACGGCGCGAGCGTCGTCGTGGAAGGCGAGAACGGGCCGGAGACGGTCGGTGAGATCAACGGCGAGG (double strand) [amfCp],binds,
CCGCTGGAGTCTGAGAAGCCATGGAAGCATTCACCACGCACACCGGCCGGGCCGTCCCGCTGCGCCGCAGCAACGTCGACACCGACCAGATCATCCCCGCCCACTGGCTCAAGAAGGTCACCAGGGACGGTTTCGAGGACGGGCTGTTCGAGGCCTGGCGCAAGGACGAGTCCTTCATCCTCAACCG (double strand) [leuDp],binds,
CTCGGGCGTGATCCGACTGCGGCGCACCGTTGCGGTCTCAGTCATCGCACTCGCCTCTCCTGCTTCGAACGACACGGTTTCCGGTTGCGTACGTCTACCCGTACGTCTTCCTCGTACCTTCCTGAAGATACCCCGAGAGCGAGCGAAACGAAACCGTTTCGTACGTGTCGTGGGTCACGCACATGTTTTCACAAGTTGCCGGGGCCCGTCGCGCGGAAAAGCATGGGTTAGGTGAACCCCGAGTCCGA (double strand) [aveTp],binds,binding [3]: binds
GAACTGGGTGACGAGGAGCTTCTCGCGAAGCTTCGCGAAGCCAAGGAAGAGCTGTTCAACCTCCGCTTCCAGGCGGCGACCGGTCAGCTCGAGAACCACGGTCGGCTCAAGGCCGTCCGCAAGGACATCGCGCGGATCTACACCCTGATGCGTGAGCGCGAGCTGGGCATCGAGACGGTGGAGAGCGCCTGATGAGCGAGAGCAACGTGACTGAGACCAACGAGCAGCGCGGTTTCCGCAAGACCCGTGAGGGTCTGGTCGTCAGCGACAAGATGGACAA (double strand) [rpsQp],binds,
GAGCTTCTCCCTGGCTTGGGACGGGCTGACGTGAACCACGGGACCCGAGAAGGGCTGAGGAAGGGCTGGAGAGCTGCGGAAGAGCTGCGGAGGAGCTGCGGAAGAGCTGCGGAAGAGCTGGAGGTCAAAGATACGTACTAGACGGTTTTGTCTTCAAGTCCCTCTTGCGGTCAAGGGTCATCCCTTACAAGGGAGTTGGGGGTGAGATATGTGTTTTTGAGTGGTTTGTGAGAGGGCG (double strand) [acop],binds,binding signal (affinity rank of 5 (1 = strongest)) [2]: 4
GCCACACGCACCCTCCGCACCAGCCCGACCAGCGGGACACCGTCCCGACCAGTGGGACACCGTCCGGATCGCGGGACACCGTCCCGACCAGCGGGAAAAGACCAAGCGGTTCGCACCCTAACAGCGACGATCCTCCACTCCACCGCCGAAGACAGGCCCGGTCCTGACCGGGACGATAAAACCAGCTGAACGGTTTTTCAATGCTCCCCTCGCCCTCTCACAAACCACTCAAAAACACATATCTCACCCCCAACTCCC (double strand) [avaR1 footprint probe],,binding [4]: binds
GCCACACGCACCCTCCGCACCAGCCCGACCAGCGGGACACCGTCCCGACCAGTGGGACACCGTCCGGATCGCGGGACACCGTCCCGACCAGCGGGAAAAGACCAAGCGGTTCGCACCCTAACAGCGACGATCCTCCACTCCACCGCCGAAGACAGGCCCGGTCCTGACCGGGACGATAAAACCAGCTGAACGGTTTTTCAATGCTCCCCTCGCCCTCTCACAAACCACTCAAAAACACATATCTCACCCCCAACTCCC (double strand) [avaR1p],binds,binding signal (affinity rank of 5 (1 = strongest)) [2]: 5
GCCCTCGTCCCAGTAGAAGACGGGTCGCCGGGTTCCTGGGCCCGTGGCCCGCATGCGCAGCTCGACCTGGGTGATCACCTCGGTCTGCGTGGTCTCGACTCATGACCGCGCCGGTCAGCGCCTCCACAAGTCGTCCAAGTTTCAGCCGGTGGCAGACATTCCGTGA (double strand) [wbpAp],no binding,
GCGGAAGGCGGCTGACCAGAGGGCCCTGCAAGAAACCAGCATAGCGGTTTGTTTGTGGCGCCCGTCACCACTTCGCCGACGCGGTACCCCCGGAGGCCAGGCACCGGTCACTGCCGCCGCCCGCGCTGCCCGCTGCCGCCGCCGAGCCGTACCGCGCGGCTCGGGCGTCGCGCATGCCGTCAGGCCCCCGGCACCTCCCTG (double strand) [avaR2p],binds,binding signal (affinity rank of 5 (1 = strongest)) [2]: 2
GCTCTTCGTGCTCACCGTCTTCGTCGCGTACGCGTACGTATGGCGGCGCGGCGGTCTGGAATGGGACTGAGGGGCCTTTAACGACATGGGACTCGAAGAAAAGCTGCCGAGCGGATTCCTGCTGACGAC (double strand) [nuoB1p],binds,
GGGTAGTGTCAAGGTCGCTGACTTTGATGATTAACTGATGATCGTGGGATTCTGAGGTGGTGTTCGCGAGGGTGAAGGAGTTCCTTCCTGGAGACATCCGTGCCCCGGATGGCGGTCCACAATTCACGAGTGGGATGCGCAGTGGGTCGCGTGCTGCAACACCGAATGGAATACCGGGTGACCGGTATGTATGGC (double strand) [aveRp2],binds,binding [5]: binds; binding [6]: binds
GTGCTGCAACACCGAATGGAATACCGGGTGACCGGTATGTATGGCGGTGCGGTGACCGCGGAAACGGCTCGGGCGGATTGACCGCCCGAGCCGGAGGAGAAGGCCATCGCCGCACCCGCGAGCAAGGGTCCAGAGGGACGGCGGCGCGAAGGCGGCCTGGCCTATGGGGAGTTCGGAGGACCAGGCGTCA (double strand) [aveRp],binds,binding signal (affinity rank of 5 (1 = strongest)) [2]: 3
TCAACCACCGTCATGTAGGGCGTACGCCCTTGCTGTACGGACCCGGTGTGTTGACGCCCGGTGCCGCGAGCGCACCCCCGCCCGCTCACGGCACCGGACTTCTCGGTGTTCCGGATGACGTCGTGCAGACGCGTGACAACTGCGCCAGTGCTGGTGCTGTGCAGCGTGTTCATCTCGCGCCCCCCGTCGTGGAGTCCGGTATCCCTGCGGTCTTGCCCTGCTGTCCTGCGGTGGTGCTGCCTTGCTTGTGTCGAAAAGCTTGCC (double strand) [probe 1],no binding,
TGCGGTGACCCCCATCTCGATCAGTTCGGTGGGGTGAAACCGCGTGAGCCGGTTGTCGTCCAGGCTCTGGGGCCCGGTGTCCGCGAGGGCGGGGAACGCCCTGAGGGAGGGGTAGGCATAAGGAAGGTACTCGGCGAGGCCGCTGCTGTGGTTGATCAACATCCGGACCGTGATCGCGTCACCGCGTTCTCCGGGAACCAGCCTCGGAAGGTACCGGCCGATCGGAGTGTCAAGACCGATCAGGTCACCGACGAGGAGTGCAACGC (double strand) [2051p],no binding,
TTCAACTGACCGTCCCGCACGTAGAGTTCTGGAGTCACCCGCACATGACCGTACGCAAGAACCAGGCGACCCTGACGGCCGACGAGAAGCGGCGCTTCGTCGACGCGCTCGTGGCGCTCAAGCGCAGTGGCCGCTACGACGAGTTCGTCACGACCCACAACGCCTTCATCATGGGCGACACCGACAGCGGCGAACGCACGGGCCATCGTTCGCCTTCCT (double strand) [melC2p],no binding,
TTGTGCCCTGTGTGTGCGCCATGGGCATACCGTCCGGGCGGAATGCCGGGTTCCGGCATCGAACGTCGTGCGATTCGGCAGTTCGAGCGATACCGGATGGTTTCGCTTCTGTTCGATTGCGGGGTGTGGTGTAGGCCAGTACGCGAAACTCGCCGGAAAAGGGGCACCCGCCGCCCGTAGGCTGGGAGGCAT (double strand) [3560p],binds,
avaR1p,,binding signal (affinity rank of 5 (1 = strongest)) [7]: 5
avaR2p,,binding signal (affinity rank of 5 (1 = strongest)) [7]: 2
avaR3p,,binding signal (affinity rank of 5 (1 = strongest)) [7]: 1
aveRp,,binding signal (affinity rank of 5 (1 = strongest)) [7]: 3
